Ends that are not written are not given here. Asp(CONHC12) = Asp whose side chain is modified with dodecylamine
B1: LRNYSHS (peptide)
peptide: LRNYSHS
notes: Tested as M13 phage clone
B2: PAPRWIH (peptide)
peptide: PAPRWIH
notes: Tested as M13 phage clone
B3: KQALTQT (peptide)
peptide: KQALTQT
B4: QQTQAQH (peptide)
peptide: QQTQAQH
notes: Tested as M13 phage clone
B5: LPSPIQK (peptide)
peptide: LPSPIQK
notes: Tested as M13 phage clone
B6: PIQPDER (peptide)
peptide: PIQPDER
notes: Tested as M13 phage clone
B7: YPVHPST (peptide)
peptide: YPVHPST
B8: LHYPFMT (peptide)
peptide: LHYPFMT
notes: Tested as M13 phage clone
B9: WPALFTH (peptide)
peptide: WPALFTH
notes: Tested as M13 phage clone
B10: VYRHLPT (peptide)
peptide: VYRHLPT
notes: Tested as M13 phage clone
B11: KVPPANT (peptide)
peptide: KVPPANT
notes: Tested as M13 phage clone
B12: GKYPPTS (peptide)
peptide: GKYPPTS
notes: Tested as M13 phage clone
B13: RVSTWDT (peptide)
peptide: RVSTWDT
notes: Tested as M13 phage clone
B14: LPLGNSH (peptide)
peptide: LPLGNSH
notes: Tested as M13 phage clone
B15: RTTSPTA (peptide)
peptide: RTTSPTA
notes: Tested as M13 phage clone
B16: PFDPPVR (peptide)
peptide: PFDPPVR
notes: Tested as M13 phage clone
B17: Asp(CONHC12)-Val-Val-Val-Val-Val-Val-Lys-Lys-Lys-Ser-Gly-Gly-Gly-Tyr-Pro-Val-His-Pro-Ser-Thr (9) (peptide)
peptide: {Asp(CONHC12)}-VVVVVVKKKSGGGYPVHPST
modifications: also: reverse polarity: Asp(CONHC12) built on Rink amide resin, end direction unclear
B18: AWKSVTA (peptide)
peptide: AWKSVTA
notes: Tested as M13 phage clone
B19: PGPTVQG (peptide)
peptide: PGPTVQG
notes: Tested as M13 phage clone
B20: DVSPAYH (peptide)
peptide: DVSPAYH
notes: Tested as M13 phage clone

Legend:
[1] = target: T1, recombinant human transforming growth factor β1 (human, UniProt P01137 279-390); assay: phage ELISA on coated growth factor, anti-M13-HRP; grade of relative binding strength, 1 highest to 4 lowest
T1 construct: Bought growth factor (Peprotech), physisorbed on microtiter wells for panning and ELISA; also called rh-TGF-β1; TGF-β1
T1 sequence (P01137 279-390 limits assumed): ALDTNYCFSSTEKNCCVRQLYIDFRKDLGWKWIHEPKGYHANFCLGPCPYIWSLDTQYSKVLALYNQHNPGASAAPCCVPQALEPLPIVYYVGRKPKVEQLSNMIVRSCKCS

[2] = target: T2, recombinant human bone morphogenetic protein-2 (human, UniProt P12643 283-396); assay: fluorescence depolarization
T2 construct: Bought growth factor (Peprotech), physisorbed on microtiter wells for panning and ELISA; also called rh-BMP-2; BMP-2
T2 sequence (P12643 283-396 limits assumed): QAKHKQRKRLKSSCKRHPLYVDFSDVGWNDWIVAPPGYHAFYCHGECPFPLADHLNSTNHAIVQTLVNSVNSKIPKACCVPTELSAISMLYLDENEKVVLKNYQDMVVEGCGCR

[3] = target: T2, recombinant human bone morphogenetic …; assay: phage ELISA on coated growth factor, anti-M13-HRP; grade of relative binding strength, 1 highest to 4 lowest
[4] = target: T2, recombinant human bone morphogenetic …; assay: cell-based or functional assay

Row | Binder | binding result [1] | binding result [3] | further results
1 | B1 | binds |  | 
2 | B2 | binds |  | 
3 | B3 |  |  | Ka [2]: 210000 M⁻¹
4 | B4 |  | binds | 
5 | B5 | binds |  | 
6 | B6 |  | binds | 
7 | B7 |  |  | Ka [2]: 1.9e+06 M⁻¹
8 | B8 |  | binds | 
9 | B9 |  | binds | 
10 | B10 | binds |  | 
11 | B11 |  | binds | 
12 | B12 | binds |  | 
13 | B13 | binds |  | 
14 | B14 | binds |  | 
15 | B15 | binds |  | 
16 | B16 |  | binds | 
17 | B17 |  |  | expression of osteocalcin in mesenchymal stem cells (western blot) [4]: 0.5 ratio (binding gels : no binding gels)
18 | B18 | binds |  | 
19 | B19 |  | binds | 
20 | B20 |  | binds | 

From patent US7544661 (NORTHWESTERN UNIVERSITY, dated 2009)
